Patent US20260184748A1 (University of Pennsylvania, published 2026)
Where no end group is shown, it is not given here.

Experiments:
Assay in all cases: cell-based or functional assay
CXCR4 = CXCR4 (UniProt P61073 1-352)
NPY2R = biological target: T1, NPY2R (UniProt P49146 1-381)
T1 sequence (looked up): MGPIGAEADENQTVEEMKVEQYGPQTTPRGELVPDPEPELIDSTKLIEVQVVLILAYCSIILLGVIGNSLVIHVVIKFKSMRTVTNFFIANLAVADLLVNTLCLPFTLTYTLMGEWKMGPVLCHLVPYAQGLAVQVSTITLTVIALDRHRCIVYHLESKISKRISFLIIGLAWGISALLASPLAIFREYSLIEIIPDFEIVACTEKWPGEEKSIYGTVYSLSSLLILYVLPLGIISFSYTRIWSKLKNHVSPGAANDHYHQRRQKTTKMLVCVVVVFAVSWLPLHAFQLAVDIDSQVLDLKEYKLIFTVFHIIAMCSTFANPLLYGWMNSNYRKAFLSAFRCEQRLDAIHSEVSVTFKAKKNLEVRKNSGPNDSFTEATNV

GIPR = biological target: T2, GIPR (UniProt P48546 22-466)
T2 sequence (looked up): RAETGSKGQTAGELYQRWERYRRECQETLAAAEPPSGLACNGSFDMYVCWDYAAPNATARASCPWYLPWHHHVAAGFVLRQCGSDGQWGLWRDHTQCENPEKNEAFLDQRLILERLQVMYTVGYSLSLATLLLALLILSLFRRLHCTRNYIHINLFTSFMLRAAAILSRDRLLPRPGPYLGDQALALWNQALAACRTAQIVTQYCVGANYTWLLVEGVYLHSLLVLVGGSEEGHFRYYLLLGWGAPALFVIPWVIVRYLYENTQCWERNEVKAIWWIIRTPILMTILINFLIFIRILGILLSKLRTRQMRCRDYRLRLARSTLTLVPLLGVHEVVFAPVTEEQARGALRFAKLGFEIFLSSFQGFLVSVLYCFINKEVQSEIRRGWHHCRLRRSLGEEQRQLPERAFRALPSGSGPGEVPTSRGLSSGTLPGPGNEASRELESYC

ADRA1B = biological target: T3, ADRA1B (UniProt P35368 1-520)
T3 sequence (looked up): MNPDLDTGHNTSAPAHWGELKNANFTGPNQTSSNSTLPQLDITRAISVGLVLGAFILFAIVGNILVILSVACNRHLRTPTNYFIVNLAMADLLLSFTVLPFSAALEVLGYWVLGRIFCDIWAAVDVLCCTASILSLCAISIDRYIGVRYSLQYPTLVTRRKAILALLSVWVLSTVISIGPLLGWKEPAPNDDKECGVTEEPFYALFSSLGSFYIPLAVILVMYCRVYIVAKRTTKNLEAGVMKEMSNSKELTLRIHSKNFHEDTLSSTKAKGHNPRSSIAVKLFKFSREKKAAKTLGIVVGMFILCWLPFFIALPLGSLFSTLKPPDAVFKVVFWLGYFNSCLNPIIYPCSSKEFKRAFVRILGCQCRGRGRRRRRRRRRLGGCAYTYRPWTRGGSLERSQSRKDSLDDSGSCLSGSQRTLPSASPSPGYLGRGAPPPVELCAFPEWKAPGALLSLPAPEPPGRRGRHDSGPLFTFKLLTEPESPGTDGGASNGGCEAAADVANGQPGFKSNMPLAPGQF

NPY1R = biological target: T4, NPY1R (UniProt P25929 1-384)
T4 sequence (looked up): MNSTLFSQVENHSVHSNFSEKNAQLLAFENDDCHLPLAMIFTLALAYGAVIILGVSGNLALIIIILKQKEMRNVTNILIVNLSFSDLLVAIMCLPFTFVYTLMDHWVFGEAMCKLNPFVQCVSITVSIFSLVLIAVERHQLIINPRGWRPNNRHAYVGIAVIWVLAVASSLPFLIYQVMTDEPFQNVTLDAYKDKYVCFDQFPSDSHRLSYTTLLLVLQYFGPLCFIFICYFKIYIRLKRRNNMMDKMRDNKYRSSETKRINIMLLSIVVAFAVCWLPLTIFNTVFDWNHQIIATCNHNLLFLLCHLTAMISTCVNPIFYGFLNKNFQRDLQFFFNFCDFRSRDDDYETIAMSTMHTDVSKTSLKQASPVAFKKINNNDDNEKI

ADCYAP1R1 = biological target: T5, ADCYAP1R1 (UniProt P41586 21-468, limits assumed)
T5 sequence (looked up): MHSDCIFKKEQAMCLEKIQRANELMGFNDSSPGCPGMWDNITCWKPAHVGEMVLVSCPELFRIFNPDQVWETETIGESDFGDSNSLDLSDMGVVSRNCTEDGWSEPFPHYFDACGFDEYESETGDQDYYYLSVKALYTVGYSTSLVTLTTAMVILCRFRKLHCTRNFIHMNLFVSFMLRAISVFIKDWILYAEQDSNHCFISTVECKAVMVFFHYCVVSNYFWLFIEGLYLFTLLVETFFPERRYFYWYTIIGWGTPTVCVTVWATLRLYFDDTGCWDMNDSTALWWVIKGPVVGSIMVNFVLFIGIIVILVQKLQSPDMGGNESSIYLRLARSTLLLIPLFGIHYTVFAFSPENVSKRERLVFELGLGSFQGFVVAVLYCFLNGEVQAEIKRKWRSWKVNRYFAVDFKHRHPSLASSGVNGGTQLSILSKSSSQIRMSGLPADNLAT

DRD3 = DRD3 (UniProt P35462 1-400)
DRD3, sequence (P35462 whole entry): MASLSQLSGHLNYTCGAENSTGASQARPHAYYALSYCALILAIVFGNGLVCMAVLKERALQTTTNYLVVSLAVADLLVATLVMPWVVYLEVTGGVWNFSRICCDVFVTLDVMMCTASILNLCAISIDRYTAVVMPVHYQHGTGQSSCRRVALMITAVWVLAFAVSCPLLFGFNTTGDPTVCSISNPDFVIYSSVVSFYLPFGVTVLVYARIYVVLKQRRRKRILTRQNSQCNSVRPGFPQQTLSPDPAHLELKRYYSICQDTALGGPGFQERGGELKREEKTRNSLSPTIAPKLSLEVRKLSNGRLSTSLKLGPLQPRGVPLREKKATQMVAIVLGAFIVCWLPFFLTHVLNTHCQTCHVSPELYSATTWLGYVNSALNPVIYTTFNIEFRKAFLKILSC

CCR2 = biological target: T6, CCR2 (UniProt P41597-2 1-360, limits assumed)
T6 sequence (looked up): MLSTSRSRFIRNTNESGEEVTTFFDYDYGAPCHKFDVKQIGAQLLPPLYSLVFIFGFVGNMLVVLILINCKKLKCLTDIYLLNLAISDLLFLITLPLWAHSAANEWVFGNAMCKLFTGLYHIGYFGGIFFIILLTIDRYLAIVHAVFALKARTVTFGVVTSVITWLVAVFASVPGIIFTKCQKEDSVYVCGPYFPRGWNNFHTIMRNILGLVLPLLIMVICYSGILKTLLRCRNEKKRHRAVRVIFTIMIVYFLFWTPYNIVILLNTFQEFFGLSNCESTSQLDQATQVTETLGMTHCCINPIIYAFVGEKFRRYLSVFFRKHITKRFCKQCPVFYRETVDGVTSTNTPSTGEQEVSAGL

CXCR4, sequence (P61073 whole entry): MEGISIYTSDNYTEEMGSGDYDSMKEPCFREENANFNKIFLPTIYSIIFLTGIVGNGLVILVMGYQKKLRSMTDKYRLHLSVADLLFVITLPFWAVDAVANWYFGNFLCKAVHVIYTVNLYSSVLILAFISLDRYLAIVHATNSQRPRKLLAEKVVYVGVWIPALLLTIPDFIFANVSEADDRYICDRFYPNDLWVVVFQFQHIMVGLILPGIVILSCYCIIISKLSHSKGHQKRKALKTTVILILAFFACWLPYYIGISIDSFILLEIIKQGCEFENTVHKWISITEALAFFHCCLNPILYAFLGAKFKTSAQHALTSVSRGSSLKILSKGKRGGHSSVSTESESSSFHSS

QATVGDVNTDRPGLLDLK (also: synthesised on Rink amide resin, C-terminal amide not given here outright) [octadecaneuropeptide (ODN)]
% Activity, arrestin, antagonist mode, 2.5 uM (CXCR4): -28.5% | % Activity, arrestin, antagonist mode, 2.5 uM (NPY2R): -10.3% | % Activity, arrestin, antagonist mode, 2.5 uM (GIPR): -18.9% | % Activity, arrestin, antagonist mode, 2.5 uM (ADRA1B): 0.1% | % Activity, arrestin, antagonist mode, 2.5 uM (NPY1R): -2.7% | % Activity, arrestin, antagonist mode, 2.5 uM (ADCYAP1R1): 0.9% | % Activity, arrestin, antagonist mode, 2.5 uM (DRD3): -1% | % Activity, arrestin, antagonist mode, 2.5 uM (CCR2): -15.4%
